These results are taken from PMC12309606.

For one assay, the target named is M33-64 TCR tetramer. Briefly: flow cytometry, TCR tetramer staining on C1R.MR1 mutant cells. The note with it: 1 μM 5-OP-RU for 3 h; stained 30 min at room temperature; parent: est. 6400; read off a plot.
Assay [1] concerns the target MR1 on C1R.MR1 cells pulsed with 5-OP-RU (UniProt Q95460). The assay can be described thus: flow cytometry, TCR tetramer staining on C1R.MR1 cells. The note with it: 5-OP-RU (10 µM), pulsed for 5 h.
Assay [2] concerns the target MR1 on C1R.MR1 cells pulsed with Ac-6-FP (UniProt Q95460). The description is as above. The note with it: Ac-6-FP (10 µM), pulsed for 5 h.
In assay [3] the target is MR1 on untreated C1R.MR1 cells (UniProt Q95460). The description is as above. The conditions noted are these: No Ligand.
In assay [4] the target is MAV36 TCR Gln99β alanine mutant on HEK293T cells (human). The assay can be described thus: flow cytometry on cells; PE-labeled MR1–5-OP-RU tetramer (0.5 μg/ml, nonsaturating) staining of HEK293T cells transiently expressing MAV36 TCR or alanine mutants with CD3, 15 min at room temperature; gates normalised for TCR level by anti-Vβ3.
The target in assay [5] is MAV36 TCR Ser49β alanine mutant on HEK293T cells (human). The assay is described as above.
For assay [6], the target named is Biotinylated C-terminal cysteine-tagged MR1–5-OP-RU (SPR) (human) (UniProt Q95460). Briefly: SPR. A general note: SPR reads the build-up and loss of mass on a sensor chip optically.

In general, Kd refers to the constant that tells how readily two partners part at equilibrium. A low value points to a tighter complex.

For “MR1 on C1R.MR1 cells pulsed with 5-OP-RU (from UniProt Q95460) Q141A”, the response in the assay with M33-64 TCR tetramer was 5400 MFI. Still for that read-out and setting: to “MR1 on C1R.MR1 cells pulsed with 5-OP-RU (from UniProt Q95460) E158A” belongs 2800 MFI; to “MR1 on C1R.MR1 cells pulsed with 5-OP-RU (from UniProt Q95460) N146A”, 4000 MFI. “MR1 on C1R.MR1 cells pulsed with 5-OP-RU (from UniProt Q95460) L151A”: the response in the assay with M33-64 TCR tetramer was found to be 7000 MFI.

As to “MR1 on C1R.MR1 cells pulsed with 5-OP-RU (from UniProt Q95460) V75A”, in the assay with M33-64 TCR tetramer, the response was 6400 MFI.

For M33-64 TCR tetramer Tyr95αPhe, the response in assay [1] was found to be 140000 MFI; in assay [2] it was 20900 MFI; in assay [3], 171 MFI. With “PE-labeled MR1–5-OP-RU tetramer (from UniProt Q95460 23-341; P61769 21-119) (complex)”, the reduction of tetramer staining against the wildtype TCR in assay [4] and in assay [5] was 50% in each case. “MR1 on C1R.MR1 cells pulsed with 5-OP-RU (from UniProt Q95460) R79A”: the response with M33-64 TCR tetramer was found to be 6600 MFI. Consider “MR1 on C1R.MR1 cells pulsed with 5-OP-RU (from UniProt Q95460) N155A”, for which the response in the assay with M33-64 TCR tetramer came to 1600 MFI.

“MR1 on C1R.MR1 cells pulsed with 5-OP-RU (from UniProt Q95460) L65A”: in the assay with M33-64 TCR tetramer, the response amounted to 1300 MFI. On the same count and under the same terms, the figure for “MR1 on C1R.MR1 cells pulsed with 5-OP-RU (from UniProt Q95460) H148A” is 4600 MFI. Regarding M33-64 TCR tetramer Tyr95αAla, the response in assay [1] stood at 61300 MFI; in assay [2] it was 166 MFI; in assay [3], 162 MFI.

As for “MR1 on C1R.MR1 cells pulsed with 5-OP-RU (from UniProt Q95460) R167A”, the response in the assay with M33-64 TCR tetramer came to 5700 MFI. As for “MR1 on C1R.MR1 cells pulsed with 5-OP-RU (from UniProt Q95460) R61A”, in the assay with M33-64 TCR tetramer, the response was 5000 MFI. On the same count and under the same terms, to “MR1 on C1R.MR1 cells pulsed with 5-OP-RU (from UniProt Q95460) T138A” belongs 5500 MFI. As to A-F7 TCR (TRAV1-2–TRBV6-1), soluble, in assay [6], the Kd came to 2700 nM. Regarding “MR1 on C1R.MR1 cells pulsed with 5-OP-RU (from UniProt Q95460) D57A”, the response with M33-64 TCR tetramer came to 6100 MFI. With “MR1 on C1R.MR1 cells pulsed with 5-OP-RU (from UniProt Q95460) M72A”, the response with M33-64 TCR tetramer came out at 5900 MFI.
